Test results: patent US20220040232A1

Columns and labels:
[1] = target: cell surface receptors for M1 peptide (TCR Vβ17) on expanded Vβ17+CD8+ T cells; assay: flow cytometry, […] (91.6) […]
[2] = target: cell surface receptors for M1 peptide (TCR Vβ17) on expanded Vβ17+CD8+ T cells; assay: tetramer staining, flow cytometry on enriched Vβ17+CD8+ T cells expanded with M1 peptide and IL-2
[3] = target: cell surface receptors for M1 peptide (TCR Vβ17) on expanded Vβ17+CD8+ T cells; assay: flow cytometry, staining with M1 peptide loaded MHC class I tetramer and anti-human Vβ17 mAb; enriched Vβ17+CD8+ T cells from day 12 PBMCs stimulated with M1 peptide and IL-2

Influenza A derived Matrix protein (M1) peptide loaded MHC class I tetramer (MBL, Catalog No. TS-0012-2C) (peptide-MHC)
% M1 Tet-negative Vβ17+ cells among gated Vβ17+CD8+ T cells [1]: 11.9%
% M1 Tet-positive Vβ17+ cells among gated Vβ17+CD8+ T cells [1]: 86.8%
percent of expanded Vβ17+CD8+ T cells positive for the tetramer [2]: 86%
% M1 Tet-negative Vβ17+ cells among enriched Vβ17+CD8+ T cells [3]: 11.9%
% M1 Tet-positive Vβ17+ cells among enriched Vβ17+CD8+ T cells [3]: 86.8%
